Source: publication PMC8565348

Tests used:
[1] = biological target: untagged BrxU (Escherichia fergusonii ATCC 35469); assay: SEC; analytical SEC, Superdex 200 Increase 5/150, 20 mM Tris-HCl pH 7.9, 150 mM NaCl; 500 nM BrxU pre-incubated at 37°C for 15 min; no nucleotide, no MgSO4; dimer to monomers
[2] = biological target: His6-BrxU WT (Escherichia fergusonii ATCC 35469); assay: SEC; analytical SEC, Superdex 200 Increase 5/150, 20 mM Tris-HCl pH 7.9, 150 mM NaCl; 500 nM BrxU pre-incubated at 37°C for 15 min with 10 mM MgSO4, no nucleotide; dimer to monomers

| stoichiometry N [1] | stoichiometry N [2] | Substance |
| --- | --- | --- |
| 2 |  | untagged BrxU (enzyme) |
|  | 2 | His6-BrxU WT (enzyme) |
